Test [1] has as its target BAH domain of human TNRC18 (amino acids 2785–2968) (human) (UniProt O15417). Description: ITC. (ITC needs no label: the signal is the heat of the interaction.)
Test [2] deals with nucleosome core particle carrying a methyllysine analogue of histone H3K9 (H3Kc9me3) (Xenopus laevis). Description: BLI. (In BLI a coated tip is dipped into the sample, and binding shifts an interference pattern.)
Test [3] deals with TNRC18 BAH domain, 2785-2968 (UniProt O15417). Description: isothermal titration calorimetry. Particulars: reference: H3(1–22)K9me3 peptide; sites T11.
The target in test [4] is T1, amino acids 718–792 of TNRC18 (Sin3-interaction motif of TNRC18) (human, UniProt O15417 718-792).
T1 sequence (peptide, looked up): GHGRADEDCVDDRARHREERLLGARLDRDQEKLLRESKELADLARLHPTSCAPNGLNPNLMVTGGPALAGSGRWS
Description: ITC.

Chain of BAH domain of human TNRC18 (amino acids 2785–2968) (human) (O15417 2785-2968): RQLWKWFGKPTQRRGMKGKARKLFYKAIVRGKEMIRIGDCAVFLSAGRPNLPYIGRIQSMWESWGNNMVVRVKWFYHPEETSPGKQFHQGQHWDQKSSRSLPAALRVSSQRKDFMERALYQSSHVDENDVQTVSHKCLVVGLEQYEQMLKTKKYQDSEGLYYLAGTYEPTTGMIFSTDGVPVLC

As usually defined, the Kd is the free concentration of one partner at which half of the binding sites on the other are occupied at equilibrium, for simple one-to-one binding. A higher Kd goes with lower affinity. H3K9me2 peptide: the Kd in test [1] was 252 µM.

For “BAH domain of human TNRC18 (amino acids 2785–2968) (from UniProt O15417 2785-2968) (domain or fragment)”, the Kd in test [2] was found to be 0.0188 µM. That is a double-digit nanomolar value.

In the case of “histone H3 1-22 (from UniProt P68431) H3(1–22)K9me3 T11ph peptide”, the “binding against the reference” value in test [3] is “same”.

B1: PAH domain of Sin3 (domain or fragment)
chain: QRLKVEDALSYLDQVKLQFGSQPQVYNDFLDIMKEFKSQSIDTPGVISRVSQLFKGHPDLIMGFNTFLPPG
The molecule B1 displayed a Kd in test [4] of 104 µM.
